Assay results from the nanobody polyreactivity screen of Harvey et al. (2022).

Assay: yeast display, Sf9 membrane polyspecificity reagent, FACS + sequencing; frameworks hold sequencing errors
In short: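 In a synthetic yeast display library (Saccharomyces cerevisiae BJ5465), nanobody expression was induced with galactose for 36–48 hours. FACS gates were set low and high (top ~1%) using anti-HA fluorescence for expression and streptavidin fluorescence for binding of the Sf9 membrane reagent. Each polyreactivity label is drawn from the gate of origin.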

Row | Sequence | polyreactivity (PSR sort gate)
1 | QVQLVESGGGLVQAGGSLRLSCAASGLTFTGYAMGWYRQAPGKERELVAAISSRGGSTYYADSVKGRFTISRDNAKNTVYLQMNSLKPEDTAVYYCAARASSGARGLDYWGQGTQVTVSS | high polyreactivity
2 | QVQLVESGGGLVQAGGSLRLSCAASGLTFTGYAMGWYRQAPGKERELVASISRSGASTFYADSVKGRFTISRDNAKNTVYLQMNSLKPEDTAVYYCAAVPGWLTSRYYYWGQGTHVTVSS | high polyreactivity
3 | QVQLVESGGGLVQAGGSLRLSCAASGLTFTHYARGWYREAPGKERELVAAISRSGGTTYYADSVKGRFTISRDNAKNTLYFQMNSLKPEDTAVYYCAARWWYRYNYDYWGLGTQVTVSS | high polyreactivity
4 | QVQLVESGGGLVQAGGSLRLSCAASGLTFTSNVMGWYRQAPGKERELVAAISSGGSTYYADSVKGRFTISRDNAKNTVYLQMNSLKPEDTAVYYCNTKLWGQYDYWGQGTQVTVSS | low polyreactivity
5 | QVQLVESGGGLVQAGGSLRLSCAASGLTFTYYAMGWYRQAPGKERELVAAISWSGGSTYYADSVKGRFTISRDNAKNTVYLQMNSLKPEDTAVYYCAAATAYYRYRGGYDYWGQGTQVTVSS | high polyreactivity
6 | QVQLVESGGGLVQAGGSLRLSCAASGLTFTYYAMGWYRQAPGKERELVAVISRRGGSTYYADSVKGRFTISRDNAKNTVYLQMNSLKPEDTAVYYCAATNLQSAYDYWGHGTQVTVSS | high polyreactivity
7 | QVQLVESGGGLVQAGGSLRLSCAASGLTFVDYAMGWYRQAPGKERELVASIDYSGSSTYYADSVKGRFTISRDNAKNTVYLQMNSLKPEDTAVYYCAATDSGEYWGQGTQVTVSS | low polyreactivity
8 | QVQLVESGGGLVQAGGSLRLSCAASGLTFVENAMGWYRQAPGKERELVASISNGGSTYYADSVKGRFTISRDNAKNTVYLQMNSLKQEDTAVYYCAAGYWAGYGSTAPYDYWGQGTQVTVSS | low polyreactivity
9 | QVQLVESGGGLVQAGGSLRLSCAASGLTFVPNAMRWYRQAPGKERELVAAISNNGGRTYYADSVKGRFTISRDNAKNTVYLQMNSLKPEDTAVYYCAKSLSPGERHSYDYRGQGTQVTVSS | high polyreactivity
10 | QVQLVESGGGLVQAGGSLRLSCAASGLTFVPYAMGWYRQAPGKERELVAAIDSGGRTNYADSVKGRFTISRDNAKNTVYLQMNSLKPEDTAVYYCAVEWLSYYDENDYWGQGTQVTVSS | high polyreactivity
11 | QVQLVESGGGLVQAGGSLRLSCAASGLTFVQYTMGWYRQAPGKERELVAVITSASSTNYADSVKGRFTISRDNAKNTVYLQMNSLKPEDTAVYYCNATTYPYYTNSYQYEYWGQGTQVTVSS | low polyreactivity
12 | QVQLVESGGGLVQAGGSLRLSCAASGLTFVTYVMGWYRQAPGKERELVAAISYSGGSTYYADSVKGRFTISRDNAKNTVYLQMNSLKPEDTAVYYCAAEWYGYQEDDYRGQGTQVTVSS | low polyreactivity
13 | QVQLVESGGGLVQAGGSLRLSCAASGLTFVVYAMGWYRQAPGKERELVAAISSTGNTYYADSEKGRFTISRDNAKNTVYLQMNSLKPEDTAVYYCAAERSFYWYHFDYWGQGTQVTVSS | high polyreactivity
14 | QVQLVESGGGLVQAGGSLRLSCAASGLTFVWYAMGWYRQAPGKERELVASITRRGVSTYADSVKGRFTISRDNAKNTVYLQMNSLKPEDTAVYYCKAQLIYKKGWYDYWGQGTQVTVSS | high polyreactivity
15 | QVQLVESGGGLVQAGGSLRLSCAASGLTFVYYAMGWYRQAPGKERELVATISWDGGSTYYADSVKGRFTISRDNAKNTVYLQLNRLKPEDTAVYYCNKYVFDRYIYETEYDYWGQGTQVTVSS | high polyreactivity
16 | QVQLVESGGGLVQAGGSLRLSCAASGLTFWDNAMGWYRQARGKERELVAAIRGGGSTYYADSVKGRFTISRDNAKNTVYLQMNSIIPEDTAVYYCNKQYWYWSNTLTIRDYWGQGTQVTVSS | low polyreactivity

Row | Sequence | polyreactivity (PSR sort gate)
17 | QVQLVESGGGLVQAGGSLRLSCAASGLTFWLNAMGWYRQAPGKERELVAAIRYSGGGTYADSVKGRFTISRDNAKNTVYLQMNSLKPEDPAVYYCAALYNLGYPQFDYWGQGTQVTVSS | low polyreactivity
18 | QVQLVESGGGLVQAGGSLRLSCAASGLTFYAYAMGWYRQAPGKERELVAAIRWSGGRTYYADSVKGRFTISRDTEKNTVYLQMNSLKPEDTAVYYCAAELSWRLYDYEYWGQGTQVTVSS | low polyreactivity
19 | QVQLVESGGGLVQAGGSLRLSCAASGLTFYAYAMGWYRQAPGKERELVAGISRSGGRTYYADSVKGRFTISRDNAKNTVYLQMNSLKPEDTAVYYCAAGIPVTSRFYGMDWGQGTQVTVSS | high polyreactivity
20 | QVQLVESGGGLVQAGGSLRLSCAASGLTFYCYAMGWYRQAPGKERELVAAITSGDSTYYADSVKGRFTISRDNAKNTVYLQMNSLKPEDTAVYYCAAVGGYPRYGYWGQGTQVTVSS | high polyreactivity
21 | QVQLVESGGGLVQAGGSLRLSCAASGLTFYGYAMGWYRQAPGKERELVAAIRWSGGRTYYADSVKGRFTISRDNAKNTVYLQMNSLKPEDTAVYYCAADYSRYYGGDYWGQGTQVTVSS | low polyreactivity
22 | QVQLVESGGGLVQAGGSLRLSCAASGLTFYGYVMGWYRQAPGKEWELVASISRSGGRTYYADSVKGRFTISRDNAKNTVFLQMNSLKPEDTAVYYCAKYLSRQSGDGEYDYWGQGTQVTVSS | low polyreactivity
23 | QVQLVESGGGLVQAGGSLRLSCAASGLTFYHYTMGWYRQAPGKERELVAAITKNGGSTYYADSVKGRFTISRDNAKNTVYLQMNSLKPEDTAVYYCNVGPRRVDRSRAASSDYDYWGQGTQVTVSS | high polyreactivity
24 | QVQLVESGGGLVQAGGSLRLSCAASGLTFYKNAMGWYSQAPGKERELVAAITQSGGSTYYADSVKGRFTISRDNAKNTVYLQMNSLKPEDTAVYYCAAATYLNGNNYYWGQGTQVTVSS | high polyreactivity
25 | QVQLVESGGGLVQAGGSLRLSCAASGLTFYPYAMGWSRQAPGKERELVAAINWSGTTTYYADSVKGRFTISRDNAKNTVYLQMNSLKPEDTAVYYCNADVYYEPTTGYYLWDYDYWGQGTQVTVSS | low polyreactivity
26 | QVQLVESGGGLVQAGGSLRLSCAASGLTFYPYAMGWYRQAPGKERELVAAITRSGTSTFYADSVKGRFTISRDNAKNTVYLQMNSLKPEETAVYYCAKGYFFVGTDWESYYWGQGTQVTVSS | low polyreactivity
27 | QVQLVESGGGLVQAGGSLRLSCAASGLTFYQNAMGWYRPAPGTERELVAGISSVGSTKYADSVKGRFTISRDNAKNTVYLQMNSLKPEDTAVYYCAPRFYAFRKGYYYWGQGTQVTVSS | high polyreactivity
28 | QVQLVESGGGLVQAGGSLRLSCAASGLTFYSYAMGWYRQAPGKERELVAAISKRGTNTFYADSAKGRFTISRDNAKNTVYLQMNSLKPEDTAVYYCAVDLSDSDYYWGQGTQVTVSS | low polyreactivity
29 | QVQLVESGGGLVQAGGSLRLSCAASGLTFYSYAMGWYRQAPGKERELVAAITISGGSTYADSVKGRFTISRDNAKNTVYLQMNSLKPEDTAVYYCAVDDFRNPDYDSWGQGTQVTVSS | low polyreactivity
30 | QVQLVESGGGLVQAGGSLRLSCAASGLTFYSYAMGWYRQAPGKERELVATIRWSGGSTYYADSVKGRFTISRDNAKNTVYLQMNSLKPEDTAVYFCAADRRINYDGLDMDYWGQGTQVTVSS | low polyreactivity
31 | QVQLVESGGGLVQAGGSLRLSCAASGLTFYTYAMGWYRQAPGKERELVAAISSGGSTNYADSVKGRFTISRDNAKNTVYLQMNSLKPEDTAVYYCASGGQYYIIRYDYWGQGTQVTVSS | low polyreactivity
32 | QVQLVESGGGLVQAGGSLRLSCAASGLTFYWYAMGWYRQAPGKERELVAAITSTGSTYYADSVKGRFTISRDNAKNTVYLQMNSLKPEDTAVYYCNADFPANWGWDYDYWGQGTQVTVSS | low polyreactivity
